Results as given in article PMC12747287, “Human O-GlcNAcase catalytic-stalk dimer anchors flexible histone binding domains” (Research Square, 2025).

Target: T1, full length human O-GlcNAcase, long isoform (OGA-L) (human, UniProt O60502 1-916)
T1 construct: human O-GlcNAcase, long isoform (OGA-L), 103 kDa, full length; Dimer in the cryo-EM structure; The methods name an anti-c-Myc antibody beside the anti-His6 antibody; the 'C-term' tag may be c-Myc; also called hOGA; full-length OGA; source: E. coli TOP10 (pBAD/HisA, codon optimized), purified (Talon resin for the arrays; HisTrap and size-exclusion chromatography for cryo-EM); not shown: His6, …
T1 sequence (looked up): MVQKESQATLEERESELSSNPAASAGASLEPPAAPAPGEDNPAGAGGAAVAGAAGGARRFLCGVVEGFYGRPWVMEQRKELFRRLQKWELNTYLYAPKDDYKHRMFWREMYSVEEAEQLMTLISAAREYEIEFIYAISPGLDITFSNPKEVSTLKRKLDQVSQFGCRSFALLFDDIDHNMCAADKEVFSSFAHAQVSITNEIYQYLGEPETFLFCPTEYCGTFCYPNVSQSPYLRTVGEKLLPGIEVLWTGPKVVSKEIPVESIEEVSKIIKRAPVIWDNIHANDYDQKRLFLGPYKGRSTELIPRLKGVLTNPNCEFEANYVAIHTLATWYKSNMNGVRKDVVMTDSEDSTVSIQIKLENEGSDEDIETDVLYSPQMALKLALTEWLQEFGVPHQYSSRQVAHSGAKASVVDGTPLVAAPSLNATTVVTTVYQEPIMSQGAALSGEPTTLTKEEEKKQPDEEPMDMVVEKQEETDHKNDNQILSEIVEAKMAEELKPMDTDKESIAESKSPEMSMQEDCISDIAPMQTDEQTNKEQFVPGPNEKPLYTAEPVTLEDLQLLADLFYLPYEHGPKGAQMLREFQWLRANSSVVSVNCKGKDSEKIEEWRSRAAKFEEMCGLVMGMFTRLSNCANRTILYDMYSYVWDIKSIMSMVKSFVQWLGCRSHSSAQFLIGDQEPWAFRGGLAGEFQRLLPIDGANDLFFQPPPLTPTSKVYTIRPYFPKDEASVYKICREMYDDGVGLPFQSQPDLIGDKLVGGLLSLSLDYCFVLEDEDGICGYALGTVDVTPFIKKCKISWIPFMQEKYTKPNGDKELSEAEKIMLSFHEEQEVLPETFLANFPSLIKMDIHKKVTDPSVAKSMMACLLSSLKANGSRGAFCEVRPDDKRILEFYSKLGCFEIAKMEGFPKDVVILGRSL
Test: peptide or protein array; Active Motif MODified Histone Peptide Array (384 modified histone peptides in duplicate, on the array); 100 nM protein in 20 mM Tris pH 7.5, 1 mM DTT, 0.5 mg/mL BSA, RT 1 hour; detected by anti-His6 antibody (also C-term tag antibody) and IR-800 secondary antibody
Conditions: both partners purified

binding result: binds
B1: histone H4 1-19 peptide, K5,8,12,16Ac (peptide, UniProt P62805 2-20, looked up)
peptide: SGRGKGGKGLGKGGAKRHR
modifications: acetyl-lysine at K5, K8, K12 and K16
notes: histone H4 tail peptide, residues 1-19; also called H4 1-19 K5,8,12,16Ac; H4K^5,8,12,16Ac; source: bought: Active Motif MODified Histone Peptide Array (peptide on the array)
